In patent US20200024330A1:

Assays:
Assay in all cases: cell-based or functional assay
[1] = target: HIV-1 Env of isolate MG RM-AG-005 (HIV-1)
[2] = target: HIV-1 JR-FL Env (pseudovirus) (HIV-1)
[3] = target: HIV-1 Env of isolate MG RM-AG-008 (HIV-1)
[4] = target: HIV-1 Env of isolate MG RM-AG-013 (HIV-1)
[5] = target: HIV-1 Env of isolate MG RM-AG-001 (HIV-1)
[6] = target: HIV-1 MGRM-F1-013 Env (pseudovirus) (HIV-1)
[7] = target: HIV-1 IAVI_C22 envelope protein (Env) on pseudotyped virus (HIV-1 isolate IAVI C22)
[8] = target: HIV-1 92TH021 envelope protein (Env) on pseudotyped virus (HIV-1 isolate 92TH021)
[9] = target: HIV-1 JR-CSF envelope protein (Env) on pseudotyped virus (HIV-1 isolate JR-CSF) (UniProt P20871)
[10] = target: HIV-1 MGRM-AG-005 envelope glycoprotein (Env) on pseudovirus (HIV-1)
[11] = target: HIV-1 APV17 envelope glycoprotein (Env) on pseudovirus (HIV-1)
[12] = target: HIV-1 APV13 envelope glycoprotein (Env) on pseudovirus (HIV-1)
[13] = target: aMLV envelope protein on pseudovirus (aMLV)
[14] = target: HIV-1 IAVI-C22 envelope glycoprotein (Env) on pseudovirus (HIV-1)
[15] = target: HIV-1 IAVI-C18 envelope glycoprotein (Env) on pseudovirus (HIV-1)
[16] = target: HIV-1 Env of isolate MGRM-F1-012 (HIV-1)
[17] = target: HIV-1 envelope glycoprotein (Env) of isolate MGRM-C-024, on pseudovirus (HIV-1)
[18] = target: HIV-1 envelope glycoprotein (Env) of isolate MGRM-C-023, on pseudovirus (HIV-1)
[19] = target: HIV-1 envelope glycoprotein (Env) of isolate MGRM-C-028, on pseudovirus (HIV-1)
[20] = target: HIV-1 Env of isolate MGRM-F1-010 (HIV-1)
[21] = target: HIV-1 Env of isolate MGRM-F1-006 (HIV-1)
[22] = target: HIV-1 envelope glycoprotein (Env) of isolate MGRM-C-026, on pseudovirus (HIV-1)
[23] = target: HIV-1 Env of isolate MGRM-D-028 (HIV-1)
[24] = target: HIV-1 Env of isolate MGRM-D-026 (HIV-1)
[25] = target: HIV-1 envelope glycoprotein (Env) of isolate MGRM-C-025, on pseudovirus (HIV-1)
[26] = target: HIV-1 envelope glycoprotein (Env) of isolate MGRM-C-014, on pseudovirus (HIV-1)

5145_B14 (PGT-127) (antibody)
neutralization IC50 [1]: > 50 µg/mL | IC50, pseudovirus neutralization [2]: 0.029 µg/mL | neutralization IC50 [3]: > 50 µg/mL | neutralization IC50 [4]: 0.018 µg/mL | neutralization IC50 [5]: > 50 µg/mL

1495_C14 (PGC14) (antibody)
IC50 (µg/ml), pseudovirus neutralization [6]: 6 µg/mL | IC50, pseudovirus neutralization, 1 hour Virus/Ab Incubation [7]: > 50 µg/mL | IC50, pseudovirus neutralization, 18 hour Virus/Ab Incubation [7]: 13.4 µg/mL | IC50, pseudovirus neutralization, 1 hour Virus/Ab Incubation [8]: > 50 µg/mL | IC50, pseudovirus neutralization, 18 hour Virus/Ab Incubation [8]: > 50 µg/mL | IC50, pseudovirus neutralization, 1 hour Virus/Ab Incubation [9]: > 50 µg/mL | IC50, pseudovirus neutralization, 18 hour Virus/Ab Incubation [9]: > 50 µg/mL

5147_N06 (PGT-130) (antibody)
IC50 (ug/ml), neutralizing activity [10]: 0.947 µg/mL | IC50 (ug/ml), neutralizing activity [11]: > 10 µg/mL | IC50 (ug/ml), neutralizing activity [12]: 0.0345 µg/mL

2F5 (antibody)
IC50 (µg/ml), pseudovirus neutralization [6]: 4.57 µg/mL | IC90 (pseudovirus neutralization) [13]: > 50 µg/mL | IC90 (pseudovirus neutralization) [14]: > 50 µg/mL

4877_D15 (PGT-122) (antibody)
neutralization IC50 [1]: 33.9 µg/mL | IC50 (ug/ml), neutralizing activity [10]: > 10 µg/mL | IC50, pseudovirus neutralization [2]: 0.026 µg/mL | neutralization IC50 [3]: > 50 µg/mL | neutralization IC50 [4]: 0.521 µg/mL | neutralization IC50 [5]: 14.5 µg/mL | IC50 (ug/ml), neutralizing activity [11]: 0.522 µg/mL | IC50 (ug/ml), neutralizing activity [12]: 0.992 µg/mL

5141_B17 (PGT-126) (antibody)
neutralization IC50 [1]: 1.21 µg/mL | IC50 (ug/ml), neutralizing activity [10]: 1.35 µg/mL | IC50, pseudovirus neutralization [2]: 0.014 µg/mL | neutralization IC50 [3]: > 50 µg/mL | neutralization IC50 [4]: 0.008 µg/mL | neutralization IC50 [5]: > 50 µg/mL | IC50 (ug/ml), neutralizing activity [11]: 0.501 µg/mL | IC50 (ug/ml), neutralizing activity [12]: 0.012 µg/mL

5123_A06 (PGT-125) (antibody)
neutralization IC50 [1]: > 50 µg/mL | IC50 (ug/ml), neutralizing activity [10]: > 10 µg/mL | neutralization IC50 [10]: > 10 µg/mL | neutralization IC80 [10]: > 10 µg/mL | neutralization IC90 [10]: > 10 µg/mL | neutralization IC95 [10]: > 10 µg/mL | IC50, pseudovirus neutralization [2]: 0.009 µg/mL | neutralization IC50 [3]: > 50 µg/mL | neutralization IC50 [4]: 0.004 µg/mL | neutralization IC50 [5]: > 50 µg/mL | IC50 (ug/ml), neutralizing activity [11]: 7.31 µg/mL | neutralization IC50 [11]: 7.31 µg/mL | neutralization IC80 [11]: > 10 µg/mL | neutralization IC90 [11]: > 10 µg/mL | neutralization IC95 [11]: > 10 µg/mL | IC50 (ug/ml), neutralizing activity [12]: 0.0128 µg/mL | neutralization IC50 [12]: 0.0128 µg/mL | neutralization IC80 [12]: 0.0414 µg/mL | neutralization IC90 [12]: 0.0821 µg/mL | neutralization IC95 [12]: 0.154 µg/mL

2G12 (antibody)
IC50 (µg/ml), pseudovirus neutralization [6]: > 50 µg/mL | IC90 (pseudovirus neutralization) [13]: > 50 µg/mL | IC90 (pseudovirus neutralization) [15]: > 50 µg/mL | IC90 (pseudovirus neutralization) [14]: > 50 µg/mL

4858_P08 (PGT-123) (antibody)
neutralization IC50 [1]: 0.149 µg/mL | IC50 (ug/ml), neutralizing activity [10]: 0.104 µg/mL | IC50, pseudovirus neutralization [10]: 0.104 µg/mL | IC80, pseudovirus neutralization [10]: 1.28 µg/mL | IC90 (pseudovirus neutralization) [10]: 6.38 µg/mL | IC95, pseudovirus neutralization [10]: > 10 µg/mL | IC50, pseudovirus neutralization [2]: 0.014 µg/mL | neutralization IC50 [3]: 19.2 µg/mL | neutralization IC50 [4]: 3.37 µg/mL | neutralization IC50 [5]: 2.51 µg/mL | IC50 (ug/ml), neutralizing activity [11]: 0.18 µg/mL | IC50, pseudovirus neutralization [11]: 0.18 µg/mL | IC80, pseudovirus neutralization [11]: 0.539 µg/mL | IC90 (pseudovirus neutralization) [11]: 1.01 µg/mL | IC95, pseudovirus neutralization [11]: 1.75 µg/mL | IC50 (ug/ml), neutralizing activity [12]: 0.222 µg/mL | IC50, pseudovirus neutralization [12]: 0.222 µg/mL | IC80, pseudovirus neutralization [12]: 0.879 µg/mL | IC90 (pseudovirus neutralization) [12]: 1.87 µg/mL | IC95, pseudovirus neutralization [12]: 3.5 µg/mL

4E10 (antibody)
IC90 (pseudovirus neutralization) [13]: > 50 µg/mL | IC90 (pseudovirus neutralization) [15]: > 50 µg/mL | IC90 (pseudovirus neutralization) [14]: 16.4 µg/mL

VRC01 (antibody)
IC50, pseudovirus neutralization [16]: 0.488 µg/mL | IC50, pseudovirus neutralization [17]: 3.4 µg/mL | IC50, pseudovirus neutralization [18]: 0.077 µg/mL | IC50, pseudovirus neutralization [19]: 0.319 µg/mL | IC50, pseudovirus neutralization [20]: 0.097 µg/mL | IC50, pseudovirus neutralization [21]: 2.86 µg/mL | IC50, pseudovirus neutralization [22]: 0.707 µg/mL | IC50, pseudovirus neutralization [23]: 0.377 µg/mL | IC50, pseudovirus neutralization [24]: 0.435 µg/mL | IC50, pseudovirus neutralization [25]: 2.36 µg/mL | IC50, pseudovirus neutralization [26]: > 50 µg/mL
